Assay results published in publication PMC6082341 (2017).
Ends that are not written are not given here.

B1: 3BP2 TBM peptide (WT positive control) (peptide)
chain: LPHLQRSPPDGQSFRS
modifications: also: fluorescein or 5(6)-carboxyfluorescein linked via β-Ala, site not given here
B2: TNKS2 ARC5 (domain or fragment)
chain: GAMGSDLLRGDAALLDAAKKGCLARVKKLSSPDNVNCRDTQGRHSTPLHLAAGYNNLEVAEYLLQHGADVNAQDKGGLIPLHNAASYGHVDVAALLIKYNACVNATDKWAFTPLHEAAQKGRTQLCALLLAHGADPTLKNQEGQTPLDLVSADDVSALLTAAMPP

Assays:
TNKS2 ARC5 = molecular target: B2; assay: FP
MERIT40 (two peptides) [1] = molecular target: T1, MERIT40 (two peptides) (fluorescein or 5(6)-carboxyfluorescein fluorophore; the fluorescein is linked via β-Ala); assay: FP; MERIT40 I peptide (…)
MERIT40 (two peptides) [2] = molecular target: T1, MERIT40 (two peptides); assay: FP; MERIT40 II peptide (…)

B1
Kd (TNKS2 ARC5): 0.39 µM

B2
Kd (MERIT40 (two peptides) [1]): 0.53 µM
Kd (MERIT40 (two peptides) [2]): 3 µM
